According to publication PMC4538835:

What was measured:
Assay in all cases: fluorescence polarisation
[1] = molecular target: TAMRA-labelled ERM_(38–68) (human) (UniProt P41161)
[2] = molecular target: TAMRA-labelled ERM_(38–68) F47L/W57L (human) (UniProt P41161)
[3] = molecular target: TAMRA-labelled ERM_(38–68) W57L (human) (UniProt P41161)
[4] = molecular target: MED25 ACID/PTOV domain (residues 391 to 548) (human) (UniProt Q71SY5)

| Kd [1] [µM] | Kd [2] [µM] | Kd [3] [µM] | IC50 [4] [µM] | Substance |
| --- | --- | --- | --- | --- |
| 0.6 | 8.3 | 4.8 |  | MED25 ACID/PTOV domain (residues 391 to 548) (from UniProt Q71SY5 391-548) (domain or fragment) |
|  |  |  | 1.5 | ERM_(38–68) peptide (unlabelled by dye) (from UniProt P41161 38-68) |
